Source: patent US20180230189A1 (INSERM INSTITUT NATIONAL DE LA SANT ET DE LA RECHERCHE …, published 2018)

Target: T1, extracellular domain of the recombinant protein NRP-1 from RnD systems (human, UniProt O14786 22-856)
T1 construct: Bought extracellular domain
Experiment: Bio-layer interferometry (BLI), synthetic peptide and recombinant NRP-1 extracellular domain
Experimental: Ligands preparation: proteins were incubated in a PBS buffer with a 1:3 ratio molar ratio of biotin (biotin-PEG4-NHS from Pierce EZ kit, prepared following the manufacturer's instructions). Free biotin was removed using a desalting column (Pierce). The biotinylated protein (called ligand) was immobilized onto streptavidin biosensor tips and dipped into wells containing the buffer with the analyte of interest (association) or without (dissociation).
From the best consensus mode, peptide sequences SEQ ID NO:3 for leptin and SEQ ID NO:4 for NRP-1 have been identified (FIG. 2). The Leptin (OB) binding domain (SEQ ID:3) to NRP-1 (SEQ ID:2) was validated by BLI using a synthetized peptide (SEQ ID:3) and the extracellular domain of the recombinant protein NRP-1 from RnD systems (FIG. 3).

T1 sequence (O14786 22-856 V179A limits assumed): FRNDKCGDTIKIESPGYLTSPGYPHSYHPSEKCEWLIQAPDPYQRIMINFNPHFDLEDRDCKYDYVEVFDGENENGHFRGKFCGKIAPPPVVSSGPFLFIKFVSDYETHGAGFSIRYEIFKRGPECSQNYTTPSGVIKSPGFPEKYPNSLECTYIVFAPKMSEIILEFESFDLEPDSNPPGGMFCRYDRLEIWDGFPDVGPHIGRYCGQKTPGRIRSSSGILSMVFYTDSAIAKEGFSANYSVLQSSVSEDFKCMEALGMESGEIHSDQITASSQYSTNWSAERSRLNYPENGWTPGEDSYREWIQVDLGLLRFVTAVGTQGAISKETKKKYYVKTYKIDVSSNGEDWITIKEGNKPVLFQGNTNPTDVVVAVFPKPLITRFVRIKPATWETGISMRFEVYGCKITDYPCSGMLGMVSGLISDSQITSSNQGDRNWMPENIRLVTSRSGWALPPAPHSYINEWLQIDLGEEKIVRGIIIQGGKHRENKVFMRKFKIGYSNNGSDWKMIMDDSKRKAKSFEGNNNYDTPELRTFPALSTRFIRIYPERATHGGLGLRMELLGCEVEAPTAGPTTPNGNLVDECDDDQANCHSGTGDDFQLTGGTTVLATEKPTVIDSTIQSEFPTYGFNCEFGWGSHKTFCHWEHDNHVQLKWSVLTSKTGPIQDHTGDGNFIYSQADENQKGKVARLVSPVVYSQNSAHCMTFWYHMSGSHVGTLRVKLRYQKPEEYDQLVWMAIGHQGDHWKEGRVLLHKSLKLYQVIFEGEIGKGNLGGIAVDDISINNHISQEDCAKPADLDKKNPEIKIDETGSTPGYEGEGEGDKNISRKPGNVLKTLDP

binding result: binds
B1: synthetized leptin (OB) peptide SEQ ID NO:3 (peptide)
peptide: ENLRDLLHVLAFSKSCHLPWASGLETL
notes: Synthetic peptide derived from leptin, identified by docking and then tested by BLI
